System: MS2 coat protein
Assay: apparent KD of MS2 coat protein; higher = weaker reporter binding
Settings: Eterna round: R107
Procedure, shortened: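 SNAP-549-labelled MS2 coat protein was titrated onto designed RNA switches that had been transcribed on-chip from Illumina sequencing clusters. Amounts doubled from 0.7 or 1.5 nM to 3 µM in 100 mM Tris-HCl pH 7.5, 80 mM KCl, 4 mM MgCl2, with constant ligand or without. Apparent KD is the median per design of normalised cluster binding-curve fits.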

[1] = input ligand: theophylline 20 uM
[2] = input ligand: theophylline 2 mM
[3] = input ligand: tryptophan 2.4 mM

GGGCAAGGUGCCGCCUUCGCCCACUGAGAAGGAGCGCAGGGUACUGCAGGUAGGUCGCUCAGACAUGAGGAUCACCCAUGUAGGA [Esislees]
apparent KD of MS2 coat protein (input ligand: arginine 13.2 mM): 32.4 nM
apparent KD of MS2 coat protein (input ligand: none): 54.5 nM
apparent KD of MS2 coat protein [1]: 89.9 nM
apparent KD of MS2 coat protein [2]: 76 nM
apparent KD of MS2 coat protein [3]: 57.6 nM

UGUAUGUGAUCUGAUACCAGCUUUGAUAACCUGAGGAUCACCCUGGUAAAGGCGAAAGCCAGCCCUUGGCAGCAGAUCGCAUACU
apparent KD of MS2 coat protein (input ligand: arginine 13.2 mM): 69.8 nM
apparent KD of MS2 coat protein (input ligand: none): 49.1 nM
apparent KD of MS2 coat protein [1]: 39.6 nM
apparent KD of MS2 coat protein [2]: 20.7 nM
apparent KD of MS2 coat protein [3]: 49.6 nM

AUAAUGGGUAUCGGAUUAUCAUGGAAUGAUACCAGAUACUUAGAUAUCCCUUGGCAGCAUGAGGACAUGAGGAUCACCCAUGUAU [#03 Exclusion-TheophyllineA]
apparent KD of MS2 coat protein (input ligand: arginine 13.2 mM): 31.3 nM
apparent KD of MS2 coat protein [1]: 56.9 nM
apparent KD of MS2 coat protein [3]: 54.9 nM

UGCCUAAAGUCGGCCGCCACUGAUGGUAUCCUCUCCUCGAGGUCACACAUGAGGAUCACCCAUGUCAGGACCGGGACUAGUGAGA [theeternabot_exclusion_MS2_Trp_B_36]
apparent KD of MS2 coat protein (input ligand: arginine 13.2 mM): 7.11 nM
apparent KD of MS2 coat protein [1]: 9.65 nM
apparent KD of MS2 coat protein [2]: 7.48 nM

AACGAGUGGCGGCCAUUGGGUGAUCCUCUACGAGGACCGGUACGGCCGCCACUCGAUAACAUGAGGAUCACCCAUGUGCCGAUAA [|T'-M'-Trp-Ms2|_Design10b]
apparent KD of MS2 coat protein (input ligand: arginine 13.2 mM): 42.3 nM
apparent KD of MS2 coat protein [1]: 164 nM
apparent KD of MS2 coat protein [2]: 240 nM

CAUUAAGUAACUGAUACCAGUGUACUGACAUGAGGAUCACCCAUGUUGGGUUUUGUUGUACACCCUUGGCAGCAGAAUCUUAAUG [AstrosExyTheB#3]
apparent KD of MS2 coat protein (input ligand: arginine 13.2 mM): 44.7 nM
apparent KD of MS2 coat protein [1]: 70.2 nM
apparent KD of MS2 coat protein [3]: 62.2 nM

AGAUUCGACACGGCCGCCACUCGUGGAGGAUUUCCGAGUGUCGAACAUGAGGAUCACCCAUGUACGAGGACCGGGUGUUGAGUCU [XTryp B #14]
apparent KD of MS2 coat protein (input ligand: arginine 13.2 mM): 21.1 nM
apparent KD of MS2 coat protein [1]: 43.4 nM
apparent KD of MS2 coat protein [2]: 32.2 nM

CAGGUUAGGGCGGCCGCCACUGUGGCUACGGUACAUGAGGAUCACCCAUGUUUGUGGUUGAUCUACAGGACCGGGCCCUGACACG [Matidier]
apparent KD of MS2 coat protein (input ligand: arginine 13.2 mM): 48.9 nM
apparent KD of MS2 coat protein (input ligand: none): 236 nM
apparent KD of MS2 coat protein [1]: 145 nM
apparent KD of MS2 coat protein [2]: 665 nM
apparent KD of MS2 coat protein [3]: 272 nM

GGGUGGUAGGCGGCCGCCACUGAUUUUCAUUCCUGGAUGACAUGAGGAUCACCCAUGUUUACGGGCAGGACCGGGCCUGCUGUGG [aaaW]
apparent KD of MS2 coat protein (input ligand: arginine 13.2 mM): 34.8 nM
apparent KD of MS2 coat protein [1]: 68.4 nM
apparent KD of MS2 coat protein [2]: 66.6 nM

UUGUUGUUUGGAAGGAGCGUGGAUGAGUGAGAACAUGAGGAUCACCCAUGUUGUAUGAUACCGCAGGUAGGUCGCCGGGUGGUGG [11.aB]
apparent KD of MS2 coat protein (input ligand: arginine 13.2 mM): 16.9 nM
apparent KD of MS2 coat protein (input ligand: none): 18.1 nM
apparent KD of MS2 coat protein [1]: 39.6 nM
apparent KD of MS2 coat protein [2]: 21.5 nM
apparent KD of MS2 coat protein [3]: 17.5 nM

GGAUAGGACACGGCCGCCACUGCGGCUAGAUACUAGCACAUUUCCUCACAUGAGGAUCACCCAUGUAGGACCGGGUGUCCUAUCG
apparent KD of MS2 coat protein (input ligand: arginine 13.2 mM): 57.6 nM
apparent KD of MS2 coat protein [1]: 122 nM
apparent KD of MS2 coat protein [2]: 89 nM

AAUGUAUGCCACAUGAGGAUCACCCAUGUGCGAGGACCGGUACGGCCGCCACUCGGUCGGUGGUUAAUGAAGAUAUACAAUAAUG [XTryp A #12]
apparent KD of MS2 coat protein (input ligand: arginine 13.2 mM): 10.6 nM
apparent KD of MS2 coat protein [1]: 20.9 nM
apparent KD of MS2 coat protein [2]: 13.5 nM

UCACGUGGGAAUGAUACCAGCCACAUGAGGAUCACCCAUGUGCAUGGUGUGAGCUUCACGGGCCCUUGGCAGCAUUUCAAGUCGC [Agelaus]
apparent KD of MS2 coat protein (input ligand: arginine 13.2 mM): 39.9 nM
apparent KD of MS2 coat protein [1]: 93.1 nM
apparent KD of MS2 coat protein [3]: 37.9 nM

UGUAUGUGAUUUGAUACCAGACCAGCUGGUGGUGCAUGAGGAUCACCCAUGCAGGUUUGGGUCCCUUGGCAGCAAAUCGCAUACU [SS Theo B #24 Ms17]
apparent KD of MS2 coat protein (input ligand: arginine 13.2 mM): 72.5 nM
apparent KD of MS2 coat protein (input ligand: none): 119 nM
apparent KD of MS2 coat protein [1]: 135 nM
apparent KD of MS2 coat protein [2]: 21.6 nM
apparent KD of MS2 coat protein [3]: 129 nM

AUAUAUACAUGAGGAUCACCCAUGUUAUUACGAGGACCGGUACGGCCGCCACUCGAUAGAGUAGAAGUAAAUUUUAAUUCAUGUA [JR_SSTryptoA_Sub007]
apparent KD of MS2 coat protein (input ligand: arginine 13.2 mM): 14.6 nM
apparent KD of MS2 coat protein [1]: 15.7 nM
apparent KD of MS2 coat protein [2]: 14.4 nM

— the supplement of paper PMC9170038
